Experimental data from paper PMC11022072 (2024).

Tests used:
Assay in all cases: BLI
LbpB C-lobe ΔCaHD = biological target: LbpB C-lobe ΔCaHD
LbpB C-lobe = biological target: LbpB C-lobe
FL LbpB ΔCaHD = biological target: FL LbpB ΔCaHD

B1: bovine lactoferrin (Lf) (natural protein)
chain: APRKNVRWCTISQPEWFKCRRWQWRMKKLGAPSITCVRRAFALECIRAIAEKKADAVTLDGGMVFEAGRDPYKLRPVAAEIYGTKESPQTHYYAVAVVKKGSNFQLDQLQGRKSCHTGLGRSAGWIIPMGILRPYLSWTESLEPLQGAVAKFFSASCVPCIDRQAYPNLCQLCKGEGENQCACSSREPYFGYSGAFKCLQDGAGDVAFVKETTVFENLPEKADRDQYELLCLNNSRAPVDAFKECHLAQVPSHAVVARSVDGKEDLIWKLLSKAQEKFGKNKSRSFQLFGSPPGQRDLLFKDSALGFLRIPSKVDSALYLGSRYLTTLKNLRETAEEVKARYTRVVWCAVGPEEQKKCQQWSQQSGQNVTCATASTTDDCIVLVLKGEADALNLDGGYIYTAGKCGLVPVLAENRKSSKHSSLDCVLRPTEGYLAVAVVKKANEGLTWNSLKDKKSCHTAVDRTAGWNIPMGLIVNQTGSCAFDEFFSQSCAPGADPKSRLCALCAGDDQGLDKCVPNSKEKYYGYTGAFRCLAEDVGDVAFVKNDTVWENTNGESTADWAKNLNREDFRLLCLDGTRKPVTEAQSCHLAVAPNHAVVSRSDRAAHVKQVLLHQQALFGKNGKNCPDKFCLFKSETKNLLFNDNTECLAKLGGRPTYEEYLGTEYVTAIANLKKCSTSPLLEACAFLTR
B1 gave a Kd (LbpB C-lobe ΔCaHD) of 2900 nM, a Kd (LbpB C-lobe) of 200 nM and a Kd (FL LbpB ΔCaHD) of 1280 nM.
